The results in this text go back to patent US20200239586A1 (LA TROBE UNIVERSITY, published 2020).

Test [1] addresses T1, human Fn14 (human, UniProt Q9NP84 28-129).
T1 sequence: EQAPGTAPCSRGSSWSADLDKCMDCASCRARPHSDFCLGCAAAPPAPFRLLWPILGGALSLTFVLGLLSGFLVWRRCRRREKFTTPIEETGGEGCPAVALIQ
The test is described as follows: cell-based or functional assay.

In test [2] the target is T2, His tagged hFn14 extracellular region mutant R56A (human, UniProt Q9NP84 28-77).
T2 construct: not shown: (His)6 tag
Briefly: ELISA with purified His-tagged hFn14 R56A; x axis 'Log (c)' without unit, µg/ml by the legend.

In test [3] the target is T1, human Fn14. The test is described as follows: cell-based or functional assay. The source holds these as a separate data set.
Test [4] deals with T3, His tagged hFn14 extracellular region mutant R56K (human, UniProt Q9NP84 28-77).
T3 construct: not shown: (His)6 tag
Briefly: ELISA with purified His-tagged hFn14 R56K; x axis 'Log (c)' without unit, µg/ml by the legend. For orientation: In an ELISA, binding on a coated surface is turned into a signal by an enzyme label.

The target of test [5] is T4, synthetic peptide hFn14 sub-domain 1p (human, biotin on the added C-terminal lysine).
T4 construct: synthesised by GLBiochem
T4 peptide: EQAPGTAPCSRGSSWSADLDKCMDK
The test is described as follows: ELISA on biotinylated synthetic peptide. As to the method: Peptides representing sub-domains 1p, 2 and 3 of hFn14 (FIG. 20, Panels B and C and FIG. 14, Panel A) and for disulfide pair mutants (Cys3&6ΔS and Cys4&5ΔS; FIG. 20 Panels D and E) were synthesized by GLBiochem Ltd. (Shanghai, China) and the cysteine residues for disulfide bonds were chosen as described in the solution structure by He et al., (2009). An additional lysine residue was added to the C-terminus in order to attach a biotin moiety and to enable the peptides to bind to neutravidin coated plates (Pre-blocked; Pierce). For these experiments, a control peptide with a biotin at the C-terminus was used as a negative control and isotype control antibodies were also used.
The ELISA was performed essentially according to the manufacturer's recommended protocol (Pierce). Briefly, peptide was coated onto wells (in duplicate) at 1-10 μg/ml for 2 hours at room temperature. Wells were washed in PBS/0.05% Tween 20/0.1% BSA 3 times and dilutions of each antibody were added in wash buffer for 1 hour with gentle agitation. After another three washes anti-mouse HRP-conjugated to horse radish peroxidase (HRP; Chemicon) was added at 1/1000 dilution for 1 hour shaking. Finally, after 4 further washes the plate was developed using TMB (3,3′,5,5′-tetramethylbenzidine) substrate (Pierce), and the reaction was stopped using 2M H2SO4 solution. Optical density at 450 nm was quantified using a Spectromax absorbance spectrophotometer.

Test [6] has as its target T5, Histidine tagged hFn14 extracellular domain, bacterially expressed (human, UniProt Q9NP84 28-77).
T5 construct: also called recombinant Fn14; recombinant human Fn14; not shown: (His)6 tag from pET-15b
Briefly: SPR (ProteOn XPR36), mAb coupled to chip, His-tagged hFn14 analyte, Langmuir 1:1 fit. As for the experimental part: The kinetic analysis of the monoclonal antibodies was performed on a ProteOn XPR36 system (BioRad) Laboratories) essentially according to the protocol from Nahshol et al (2008). Monoclonal antibodies against hFn14 (50 μg/ml) were covalently coupled to a GMC chip. Analytes were a serial dilution of bacterially expressed and purified Histidine tagged hFn14. The binding sensorgrams were collected, processed and analyzed using the integrated ProteOn Manager software (BioRad Laboratories). Binding curves were fitted using the Langmuir model describing 1:1 binding stoichiometry.
Binding kinetics of anti-Fn14 antibodies CRCBT-06-001, CRCBT-06-002, CRCBT-06-004, ITEM-1 and ITEM-4 were assessed as described herein and results are set out in Table 4.

Test [7] addresses phage expressed hFn14 mutant D62A (human, UniProt Q9NP84 28-77). The test is described as follows: phage ELISA (Method 2): antibody coated on the plate, 10-fold dilutions of phage displaying hFn14 D62A; biotin anti-M13 antibody, streptavidin-HRP, TMB, OD 450 nm; x axis = dilution of phage. From the text: ELISAs showing the reactivity of mutant hFn14 phage constructs with the anti-Fn14 monoclonal antibodies CRCBT-06-001, CRCBT-06-002, CRCBT-06-004 compared to ITEM-1 and ITEM-4. Binding was detected using Biotin-conjugated anti-M13-phage monoclonal antibody followed by HRP-conjugated Streptavidin and TMB substrate. Optical density at 450 nm was quantified using a Spectramax spectrophotometer. Error bars for each dilution represent the standard deviation of duplicate assays. FIG. 28A L46A, FIG. 28B D51A and FIG. 28C D62A. In all cases error bars represent the standard deviation. X axis=dilution of phage. Methods according to Epitope mapping using phage expressed Fn14—Method 2.
The wells of Maxisorp immunoplates (Nunc) were coated overnight at 4° C. with the target monoclonal antibodies or recombinant Tweak-Fc at a concentration of 1.5 μg/ml in PBS. mAb 5G8 was used as a negative control for ELISA plates coated with tested antibodies. […] 10-fold serial dilutions of phage were made using PBS solution and phage dilutions were added to the coated, blocked ELISA plates for 1 hour, shaking at room temperature. […]
Method A: HRP-conjugated anti-M13-phage antibody (GE Healthcare) at a 1/5000 dilution in PBS was then added to the wells of the ELISA plates for 1 hour, shaking at room temperature. […] Optical density at 450 nm was quantified using a Spectramax absorbance spectrophotometer.

T2 sequence (Q9NP84 28-77 R56A): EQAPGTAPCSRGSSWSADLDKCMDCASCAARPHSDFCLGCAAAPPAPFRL

B1: CRCBT-06-002 (antibody, IgG1, V domains shown)
VH: EVKLQQSGGGLVQPGGSMKLSCVASGFTFSYYWMNWVRQSPEQGLEWIAEIRLQSNDYPTHYAESVKGRFTISRDDSKNSVYLQMNNLRPEDTGIYYCACRYADYFDHWGQGTTLTVSS
VL: DTVLTQSPASLVVSLGQRATISCRASQSVSTSDYSYIHWYQQKPGQPPKFLIKYASNRDSGVPARFSGSGSGTDFTLNIHPVEEDDTAIYYCQHSWEIPPTFGAGTKLELQR
By Kd is commonly meant a measure of binding affinity in units of concentration. Read a high Kd as weaker binding. Broadly, the koff is a measure of how fast the partners let go of each other. Read a high koff as fast dissociation. The term kon denotes a measure of how fast the partners come together. High values mean fast association, low ones slow association. As for B1, the “NFκB-GFP reporter in HEK293T cells” value in test [1] was determined as 100 ng/mL. The binding result in test [2] is “binds”; in test [4], “binds”; in test [5], “no binding”; in test [7] it was “binds”. The “% Agonist, IL-8 secretion by A375 cells” value in test [3] amounted to 11%. In addition, the “% Antagonist, IL-8 secretion by A375 cells” value in test [3] amounted to 94%. The Kd in test [6] was 0.198 nM. The koff in test [6] turned out to be 2.59e-05 s⁻¹. For the same molecule, the kon in test [6] was 131000 M⁻¹ s⁻¹.

B2: CRCBT-06-001 (antibody, IgG2b, V domains shown)
VH: QVQLQQSGGGLVQPGGSMKLSCIASGFTFSSYWMSWVRQSPEKGLEWVAEIRSKSDNYATHYAESVKGKFTISRDDSKSRFFLQMNNLRAEDTGIYYCSSTYADYFHYWGQGTDLTVSS
VL: DIVMTQTPASLAVSLGQRATISCRASQSVSTSTYSYMHWYQQKPGQPPKLLIKYASSLESGVPARFSGSGSGTDFTLNIHPVEEDDTATYYCQHSWEIPYTFGGGTKLEIKR
For B2, the “NFκB-GFP reporter in HEK293T cells” value in test [1] was 1000 ng/mL. Further, the binding result is recorded as “binds” in test [2], “binds” in test [4], “no binding” in test [5] and “binds” in test [7]. In addition, the “% Agonist, IL-8 secretion by A375 cells” value in test [3] is 128%. In addition, binding in test [6] was characterised by a dissociation constant (Kd) of 0.55 nM. This molecule also returned a koff in test [6] of 0.000102 s⁻¹. The molecule also returned a kon in test [6] of 186000 M⁻¹ s⁻¹.
